Results taken from patent US20240034757A1 (OXFORD UNIVERSITY INNOVATION, published 2024).
Read-outs that look alike come from different tables or passages of the source.

Assays:
CXCL7_HUMAN = molecular target: T1, CXCL7_HUMAN (human, UniProt P02775 59-128); assay: BLI [Cont.]
T1 sequence: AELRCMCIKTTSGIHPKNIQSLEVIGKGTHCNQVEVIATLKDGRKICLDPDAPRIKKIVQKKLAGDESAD

CXCL8_HUMAN [1] = molecular target: T2, CXCL8_HUMAN (human, UniProt P10145 28-99); assay: BLI [Cont.]
T2 sequence: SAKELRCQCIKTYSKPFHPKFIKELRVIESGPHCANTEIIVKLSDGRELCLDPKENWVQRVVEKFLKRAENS

CXCL11_HUMAN [2] = molecular target: T3, CXCL11_HUMAN (human, UniProt O14625 22-94); assay: yeast surface display FACS re-test; also: test concentration or dose not given here
T3 sequence: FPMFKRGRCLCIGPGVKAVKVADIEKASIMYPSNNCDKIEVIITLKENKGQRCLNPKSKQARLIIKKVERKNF

CXCL9_HUMAN = molecular target: T4, CXCL9_HUMAN (human, UniProt Q07325 23-125); assay: BLI
T4 sequence: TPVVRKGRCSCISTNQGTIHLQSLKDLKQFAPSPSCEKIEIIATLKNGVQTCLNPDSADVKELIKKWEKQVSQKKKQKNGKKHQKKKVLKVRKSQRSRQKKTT

CXCL12_HUMAN = CXCL12_HUMAN (human, UniProt P48061 22-89); assay: BLI
CXCL14_HUMAN = molecular target: T5, CXCL14_HUMAN (human, UniProt O95715 35-111); assay: BLI
T5 sequence: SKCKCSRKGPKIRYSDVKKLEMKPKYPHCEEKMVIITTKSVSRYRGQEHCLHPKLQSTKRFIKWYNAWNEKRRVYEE

CXCL1_HUMAN = molecular target: T6, CXCL1_HUMAN (human, UniProt P09341 35-107); assay: yeast surface display FACS re-test; also: test concentration or dose not given here
T6 sequence: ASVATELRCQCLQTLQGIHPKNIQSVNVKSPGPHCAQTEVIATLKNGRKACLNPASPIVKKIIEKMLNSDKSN

CXCL8_HUMAN [3] = molecular target: T2, CXCL8_HUMAN; assay: yeast surface display FACS re-test; also: test concentration or dose not given here
CXCL13_HUMAN = molecular target: T7, CXCL13_HUMAN (human, UniProt O43927 23-109); assay: BLI
T7 sequence: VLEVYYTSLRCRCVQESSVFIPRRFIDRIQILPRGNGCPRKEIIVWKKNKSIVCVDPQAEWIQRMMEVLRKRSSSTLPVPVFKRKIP

CXCL6_HUMAN = molecular target: T8, CXCL6_HUMAN (human, UniProt P80162 38-114); assay: BLI [Cont.]
T8 sequence: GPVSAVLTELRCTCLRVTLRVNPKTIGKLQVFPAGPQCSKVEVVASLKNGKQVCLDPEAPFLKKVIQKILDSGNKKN

CXCL11_HUMAN [4] = molecular target: T3, CXCL11_HUMAN; assay: BLI
CXCL10_HUMAN [5] = molecular target: T9, CXCL10_HUMAN (human, UniProt P02778 22-98); assay: BLI
T9 sequence: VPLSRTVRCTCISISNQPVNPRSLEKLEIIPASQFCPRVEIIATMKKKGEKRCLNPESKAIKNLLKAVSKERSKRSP

P974_AMBCA = molecular target: T10, P974_AMBCA (Amblyomma cajennense, UniProt A0A023FDY8 22-118); assay: BLI
T10 sequence: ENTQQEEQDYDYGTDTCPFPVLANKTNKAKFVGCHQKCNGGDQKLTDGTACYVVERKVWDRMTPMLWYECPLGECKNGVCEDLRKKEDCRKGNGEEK

P1243_AMBAM [6] = molecular target: T11, P1243_AMBAM (Amblyomma americanum, UniProt A0A0C9S461 26-123); assay: BLI
T11 sequence: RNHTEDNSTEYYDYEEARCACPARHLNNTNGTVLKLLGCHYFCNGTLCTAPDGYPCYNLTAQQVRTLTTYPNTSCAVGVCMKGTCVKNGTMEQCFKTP

P672_RHIPU = molecular target: T12, P672_RHIPU (Rhipicephalus pulchellus, UniProt L7MC74 22-125); assay: BLI
T12 sequence: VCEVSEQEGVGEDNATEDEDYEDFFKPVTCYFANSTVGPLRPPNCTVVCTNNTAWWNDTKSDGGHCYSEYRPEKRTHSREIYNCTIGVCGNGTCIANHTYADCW

P985_AMBPA = molecular target: T13, P985_AMBPA (Amblyomma parvum, UniProt A0A023FT45 25-132); assay: BLI
T13 sequence: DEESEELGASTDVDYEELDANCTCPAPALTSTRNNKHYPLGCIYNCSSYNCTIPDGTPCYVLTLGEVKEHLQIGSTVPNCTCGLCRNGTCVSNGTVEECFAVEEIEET

P983_AMBCA = molecular target: T14, P983_AMBCA (Amblyomma cajennense, UniProt A0A023FFB5 22-119); assay: BLI
T14 sequence: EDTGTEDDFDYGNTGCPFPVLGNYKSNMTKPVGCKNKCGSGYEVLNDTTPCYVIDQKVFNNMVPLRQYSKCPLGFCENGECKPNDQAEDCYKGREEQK

P1181_AMBMA = molecular target: T15, P1181_AMBMA (Amblyomma maculatum, UniProt G3MIX6 26-115); assay: BLI
T15 sequence: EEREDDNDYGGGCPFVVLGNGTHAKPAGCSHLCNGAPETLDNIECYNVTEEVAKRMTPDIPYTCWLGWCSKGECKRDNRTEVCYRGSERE

P1180_AMBTR = molecular target: T16, P1180_AMBTR (Amblyomma triste, UniProt A0A023G6B6 26-116); assay: BLI
T16 sequence: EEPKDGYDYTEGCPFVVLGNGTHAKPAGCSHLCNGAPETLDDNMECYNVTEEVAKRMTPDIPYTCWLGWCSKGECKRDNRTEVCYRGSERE

P546_AMBCA = molecular target: T17, P546_AMBCA (Amblyomma cajennense, UniProt A0A023FBW7 22-118); assay: BLI
T17 sequence: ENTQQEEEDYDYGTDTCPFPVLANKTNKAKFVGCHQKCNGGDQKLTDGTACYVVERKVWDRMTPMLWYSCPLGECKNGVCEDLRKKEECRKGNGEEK

P1183_AMBTR = molecular target: T18, P1183_AMBTR (Amblyomma triste, UniProt A0A023G9N9 26-115); assay: BLI
T18 sequence: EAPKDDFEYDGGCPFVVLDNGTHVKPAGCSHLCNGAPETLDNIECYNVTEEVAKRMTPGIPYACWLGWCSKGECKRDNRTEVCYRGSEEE

P467_RHIPU = molecular target: T19, P467_RHIPU (Rhipicephalus pulchellus, UniProt L7M8Z8 22-127); assay: BLI
T19 sequence: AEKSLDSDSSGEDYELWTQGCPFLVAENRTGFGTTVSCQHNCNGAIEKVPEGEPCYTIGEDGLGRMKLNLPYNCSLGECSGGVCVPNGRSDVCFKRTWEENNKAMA

P991_AMBCA = molecular target: T20, P991_AMBCA (Amblyomma cajennense, UniProt A0A023FFD0 29-136); assay: BLI
T20 sequence: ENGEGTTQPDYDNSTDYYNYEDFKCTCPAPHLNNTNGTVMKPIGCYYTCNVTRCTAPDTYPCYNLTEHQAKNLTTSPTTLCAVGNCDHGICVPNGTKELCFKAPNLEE

P1243_AMBAM [7] = molecular target: T11, P1243_AMBAM; assay: BLI; remark: listed apart in the source
CXCL4_HUMAN = molecular target: T21, CXCL4_HUMAN (human, UniProt P02776 32-101); assay: BLI [Cont.]
T21 sequence: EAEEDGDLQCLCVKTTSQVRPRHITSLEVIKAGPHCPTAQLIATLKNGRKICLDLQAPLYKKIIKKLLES

CXCL10_HUMAN [8] = molecular target: T9, CXCL10_HUMAN; assay: yeast surface display FACS re-test; also: test concentration or dose not given here

Chain of CXCL12_HUMAN (P48061 22-89 limits assumed): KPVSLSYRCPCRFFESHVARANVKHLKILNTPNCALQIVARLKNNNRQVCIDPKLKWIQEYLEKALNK

B1: P675_IXORI (other)
chain: GSNQLSGPQSSANSNDAVFCDTNCTQGTDGAWSGCRGDCFCVHVGNSTEGRCIELIGDFDYSTPGAED
- binding result (CXCL7_HUMAN): no binding (tested: 300 nM)
- binding result (CXCL8_HUMAN [1]): no binding (tested: 300 nM)
- % cells over threshold fluorescence (CXCL11_HUMAN [2]): 55%
- binding result (CXCL9_HUMAN): no binding (tested: 300 nM)
- binding result (CXCL12_HUMAN): no binding (tested: 300 nM)
- binding result (CXCL14_HUMAN): no binding (tested: 300 nM)

B2: P1168_IXORI (other)
chain: GQDTDGKEKSDEYELFTVEYCGTNCTQLENGSWTACTGKNGTCRCFHENDKKVGLCLSTEYTDFSEYPDPNSEEIKAASPLP
- % cells over threshold fluorescence (CXCL1_HUMAN): 66%
- % cells over threshold fluorescence (CXCL8_HUMAN [3]): 24%
- binding result (CXCL9_HUMAN): no binding (tested: 300 nM)
- binding result (CXCL13_HUMAN): no binding (tested: 300 nM)
- binding result (CXCL12_HUMAN): no binding (tested: 300 nM)

B3: P1128_IXORI (other)
chain: KDDEHFSVDYCGMNCTQQEDGSWTACSGRNEECRCYHESGKKNGLCLSTTYIDFSQYGNPSDSDIAAASPRP
- binding result (CXCL6_HUMAN): no binding (tested: 300 nM)
- % cells over threshold fluorescence (CXCL8_HUMAN [3]): 53%
- binding result (CXCL9_HUMAN): no binding (tested: 300 nM)
- binding result (CXCL13_HUMAN): no binding (tested: 300 nM)
- binding result (CXCL11_HUMAN [4]): no binding (tested: 300 nM)
- binding result (CXCL12_HUMAN): no binding (tested: 300 nM)
- binding result (CXCL10_HUMAN [5]): no binding (tested: 300 nM)
- binding result (CXCL14_HUMAN): no binding (tested: 300 nM)

B4: CCL7_HUMAN (ligand)
chain: not shown
- Kd (P974_AMBCA): 41.2 nM
- Kd (P1243_AMBAM [6]): 8.66 nM
- Kd (P672_RHIPU): 16 nM
- Kd (P985_AMBPA): 61 nM
- Kd (P983_AMBCA): 32 nM
- Kd (P1181_AMBMA): 120 nM
- Kd (P1180_AMBTR): 98 nM
- Kd (P546_AMBCA): 90 nM
- Kd (P1183_AMBTR): 5.4 nM
- Kd (P467_RHIPU): 2.15 nM
- Kd (P991_AMBCA): 0.514 nM
- Kd (P1243_AMBAM [7]): 8.66 nM

B5: P1078_IXORI (other)
chain: GSKGSSAQQSSHDSIKAEFCETNCTMKTGGKWTQCHGGCFCVHVGNETVGRCIKLDGDYDYPSSKHEE
- binding result (CXCL7_HUMAN): no binding (tested: 300 nM)
- binding result (CXCL4_HUMAN): no binding (tested: 300 nM)
- binding result (CXCL8_HUMAN [1]): no binding (tested: 300 nM)
- % cells over threshold fluorescence (CXCL11_HUMAN [2]): 38%
- binding result (CXCL9_HUMAN): no binding (tested: 300 nM)
- binding result (CXCL12_HUMAN): no binding (tested: 300 nM)
- binding result (CXCL14_HUMAN): no binding (tested: 300 nM)

B6: P1127_IXORI (other)
chain: AGKDDEHFSVDYCGMNCTQQEDGSWTACSGRNGECRCYHESGKRSGLCLSTTYIDFSEYGNLSDSDIAAASPRLSMKESH
- % cells over threshold fluorescence (CXCL8_HUMAN [3]): 43%
- binding result (CXCL9_HUMAN): no binding (tested: 300 nM)
- binding result (CXCL13_HUMAN): no binding (tested: 300 nM)
- binding result (CXCL12_HUMAN): no binding (tested: 300 nM)

B7: P942_IXORI (other)
chain: NQLSGPQSSANSNEAVFCDTNCTQGTDEAWSGCRGDCFCVYVGNSTEGRCMMLSGDFDYSTPGAED
- binding result (CXCL7_HUMAN): no binding (tested: 300 nM)
- binding result (CXCL8_HUMAN [1]): no binding (tested: 300 nM)
- % cells over threshold fluorescence (CXCL11_HUMAN [2]): 37%
- binding result (CXCL9_HUMAN): no binding (tested: 300 nM)
- binding result (CXCL12_HUMAN): no binding (tested: 300 nM)
- binding result (CXCL14_HUMAN): no binding (tested: 300 nM)

B8: P1074_IXORI (other)
chain: GSKESSAHQSSDDSIKAEFCDAKCTMKTDGKWTQCHGGCFCVHVGNETEGRCMRLDGDYDYPSTQPEE
- binding result (CXCL7_HUMAN): no binding (tested: 300 nM)
- binding result (CXCL8_HUMAN [1]): no binding (tested: 300 nM)
- % cells over threshold fluorescence (CXCL11_HUMAN [2]): 33%
- % cells over threshold fluorescence (CXCL10_HUMAN [8]): 71%
- binding result (CXCL12_HUMAN): no binding (tested: 300 nM)
- binding result (CXCL14_HUMAN): no binding (tested: 300 nM)

B9: P1174_IXORI (other)
chain: LNNENELFSVEYCGANCTQQDNGSWTKCKGNCTCYHEDGKRYGLCLSTEYTDFTQFPKPTSEEIADASPRPKETNSH
- binding result (CXCL6_HUMAN): no binding (tested: 300 nM)
- % cells over threshold fluorescence (CXCL8_HUMAN [3]): 29%
- binding result (CXCL9_HUMAN): no binding (tested: 300 nM)
- binding result (CXCL13_HUMAN): no binding (tested: 300 nM)
- binding result (CXCL12_HUMAN): no binding (tested: 300 nM)
- binding result (CXCL10_HUMAN [5]): no binding (tested: 300 nM)
- binding result (CXCL14_HUMAN): no binding (tested: 300 nM)

B10: P1101_IXORI (other)
chain: HTTVAGSDEDIEVSYCGMNCTVESGKSSKCSPDCVCVHEGNERDGICISITYLGDLGNPLEDPSIDLATPLAPVFQSSK
- % cells over threshold fluorescence (CXCL10_HUMAN [8]): 75%

B11: P1080_IXORI (other)
chain: SAGSKGSSAPQSSGDSVVAEFCDTNCTMKKDGKWTECNGDCFCVHVGNETVGRCMRLDGDYDYTSSKTTRRNKKTRNGLCRLDRNRTTVDYPERNTREP
- % cells over threshold fluorescence (CXCL11_HUMAN [2]): 45%
- % cells over threshold fluorescence (CXCL10_HUMAN [8]): 70%
